{
  "source": "paper PMC4220643",
  "about": "(2014)",
  "binders": {"B1": {"name": "PsbO (natural protein)", "chain": "AKQTLTYDDIVGTGLANKCPTLDDTARGAYPIDSSQTYRIARLCLQPTTFLVKEEPKNKRQEAEFVPTKLVTRETTSLDQIQGELKVNSDGSLTFVEEDGIDFQPVTVQMAGGERIPLLFTVKNLVASTQPNVTSITTSTDFKGEFNVPSYRTANFLDPKGRGLASGYDSAIALPQAKEEELARANVKRFSLTKGQISLNVAKVDGRTGEIAGTFESEQLSDDDMGAHEPHEVKIQGVFYASIEPA"}},
  "key": {"[1]": {"molecular_target": "Im7-D2 (C-terminal domain of D2 fused to Im7) (Thermosynechococcus elongatus, UniProt Q8CM25 289-352)", "sequence (Q8CM25 289-352)": "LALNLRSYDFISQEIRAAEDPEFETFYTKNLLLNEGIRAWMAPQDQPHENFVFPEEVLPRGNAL", "assay": "SPR"}, "[2]": {"molecular_target": "Im7-D1a (D1 a-loop fused to Im7) (Thermosynechococcus elongatus, UniProt P0A444 54-113)", "sequence (P0A444 54-113)": "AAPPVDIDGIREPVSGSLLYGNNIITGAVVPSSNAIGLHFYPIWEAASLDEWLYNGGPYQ", "assay": "SPR"}},
  "data": [
    {"binder": "B1", "values": [
      {"measurement": "Kd", "setting": "[1]", "result": "~41", "unit": "µM"},
      {"measurement": "Kd", "setting": "[2]", "result": "~60", "unit": "µM"}
    ]}
  ]
}
